According to US20030113743A1 (BAYLOR COLLEGE OF MEDICINE HYBRITECH, published 2003):

How the values were obtained:
Experiment in all cases: covalent complex formation, SDS-PAGE and Western blot with HK1G586.1
[1] = molecular target: T1, alpha 2-antiplasmin (human, UniProt P08697 40-491, limits assumed)
T1 construct: Serpin, used at 20 µM; also called α2-antiplasmin; 1-antiplasmin
T1 sequence (looked up): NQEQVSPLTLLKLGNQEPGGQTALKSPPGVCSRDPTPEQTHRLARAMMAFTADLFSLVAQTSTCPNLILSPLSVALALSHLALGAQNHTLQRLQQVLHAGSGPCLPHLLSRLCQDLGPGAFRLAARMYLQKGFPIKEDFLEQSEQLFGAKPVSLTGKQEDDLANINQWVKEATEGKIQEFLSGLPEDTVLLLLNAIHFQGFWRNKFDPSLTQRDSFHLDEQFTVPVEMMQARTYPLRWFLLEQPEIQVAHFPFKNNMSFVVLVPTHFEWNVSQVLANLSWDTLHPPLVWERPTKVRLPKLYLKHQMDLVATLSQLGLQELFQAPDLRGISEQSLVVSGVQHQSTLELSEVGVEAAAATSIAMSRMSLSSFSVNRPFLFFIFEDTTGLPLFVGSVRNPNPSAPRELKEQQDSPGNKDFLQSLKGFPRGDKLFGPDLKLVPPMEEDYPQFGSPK
Method: (§1) FIG. 18 depicts Western blot analysis of hK2 incubated with protease inhibitors. Each sample was separated on a 8-25% gradient SDS-PAGE, blotted and probed with HK1G586.1. hK2 was incubated for 4 hours at 37° C. with the following inhibitors: Lane 1, antichymotrypsin (ACT); lane 2, alpha 2-antiplasmin; lane 3, anti-thrombin III; lane 4, alpha 1-protease inhibitor (anti-trypsin); lane 5, alpha 2-macroglobulin; lanes 1 and 2 show a covalent complex of the predicted Mr of 90-100 kD. Serpin inhibitors were employed at 20 μM, macroglobulin at 2.8 μM, and hK2 at 0.175 μM.
(§2) To test for covalent complex formation, 0.175 μM hK2 was incubated with 20 μM of inhibitor at pH 8 in 100 mM borate buffer. Inhibitors tested were 1-antichymotrypsin, 1-antitrypsin, 1-antiplasmin, antithrombin and 2-macroglobulin. To 5 μl of hK2 (10 μg/ml) was added the calculated μg of inhibitor prepared in 100 mM borate buffer and, if needed, each sample brought up to a total volume of 10 μl. Samples were incubated for 3 hours at 37° C. whereupon 1.5 μl of 7 X PhastSystem SDS sample buffer containing 35% 2-mercaptoethanol was added and the sample boiled for 3 minutes in a water bath. Samples were diluted 1/4 in SDS sample buffer prior to application to SDS/PAGE and Western analyses.

[2] = molecular target: T2, α1-antitrypsin (alpha 1-protease inhibitor) (human, UniProt P01009 25-418)
T2 construct: Serpin, used at 20 µM
Method: as §1, §2

[3] = molecular target: T3, antithrombin III (human, UniProt P01008 33-464)
T3 construct: Serpin, used at 20 µM
Method: as §1, §2

[4] = molecular target: T4, antichymotrypsin (ACT) (human, UniProt P01011 24-423)
T4 construct: Serpin, used at 20 µM; also called 1-antichymotrypsin
T4 sequence (looked up): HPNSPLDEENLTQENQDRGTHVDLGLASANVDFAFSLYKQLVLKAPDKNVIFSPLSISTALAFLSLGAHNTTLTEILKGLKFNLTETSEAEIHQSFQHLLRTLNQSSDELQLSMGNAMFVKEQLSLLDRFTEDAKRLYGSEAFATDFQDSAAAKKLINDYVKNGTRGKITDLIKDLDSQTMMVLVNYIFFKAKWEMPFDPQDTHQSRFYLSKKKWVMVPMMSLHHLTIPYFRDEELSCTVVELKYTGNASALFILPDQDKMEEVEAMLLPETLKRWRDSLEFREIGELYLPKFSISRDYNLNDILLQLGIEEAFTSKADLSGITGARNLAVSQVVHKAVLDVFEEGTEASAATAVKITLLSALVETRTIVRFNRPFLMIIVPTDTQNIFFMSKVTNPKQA
Method: as §1, §2

T3 sequence (P01008 33-464 limits assumed): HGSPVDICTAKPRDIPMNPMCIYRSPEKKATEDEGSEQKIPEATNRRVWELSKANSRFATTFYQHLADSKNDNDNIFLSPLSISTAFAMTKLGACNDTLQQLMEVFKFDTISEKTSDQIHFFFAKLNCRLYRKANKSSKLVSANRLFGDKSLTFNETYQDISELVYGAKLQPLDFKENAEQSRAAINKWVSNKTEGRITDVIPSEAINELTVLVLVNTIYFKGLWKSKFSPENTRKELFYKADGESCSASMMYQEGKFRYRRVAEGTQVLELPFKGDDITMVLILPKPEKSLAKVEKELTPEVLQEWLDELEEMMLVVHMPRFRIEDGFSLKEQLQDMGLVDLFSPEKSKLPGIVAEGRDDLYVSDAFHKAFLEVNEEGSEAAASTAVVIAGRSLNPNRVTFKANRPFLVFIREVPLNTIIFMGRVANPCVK
T2 sequence (P01009 25-418 limits assumed): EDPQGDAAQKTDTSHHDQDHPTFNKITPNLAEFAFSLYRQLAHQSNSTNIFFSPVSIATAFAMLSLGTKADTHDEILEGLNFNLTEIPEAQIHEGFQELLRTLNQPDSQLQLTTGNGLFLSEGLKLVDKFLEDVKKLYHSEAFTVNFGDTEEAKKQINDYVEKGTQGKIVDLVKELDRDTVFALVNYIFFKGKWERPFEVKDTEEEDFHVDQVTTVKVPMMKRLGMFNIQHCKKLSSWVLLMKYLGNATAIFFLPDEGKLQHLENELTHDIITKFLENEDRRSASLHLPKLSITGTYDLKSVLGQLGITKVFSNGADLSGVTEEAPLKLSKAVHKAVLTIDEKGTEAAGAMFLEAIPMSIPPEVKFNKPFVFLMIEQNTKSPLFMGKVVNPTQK

B1: wild type mature hK2 (prostate-specific glandular kallikrein protein) (enzyme)
chain: not shown
notes: From spent medium of AV12-hK2, PC3-hK2 and DU145-hK2 cells, LNCaP medium, seminal fluid or prostate tissue, depending on the experiment; also called native hK2
[1]
  binding result: binds
[2]
  binding result: no binding (tested: 20 µM inhibitor, 0.175 µM hK2)
[3]
  binding result: no binding (tested: 20 µM inhibitor, 0.175 µM hK2)
[4]
  binding result: binds
